B1: S728-1157 IgG (antibody, V domains shown)
VH: EVQLVESGGGLVQPGGSLRLSCAASGLLVSRNYMNWVRQAPGKGLEWVSIIYSGGSTFYADSVEGRFTISRDESKNTLYLQMNSLRTDDTAVYYCARDLSDYGGIDCWGQGTLVTVSS
VL: ELTQPLSVSMALGQTARISCGGDNVGSQNVHWYQQRPGQAPVLVIYRDSNRPSGIPERFSGSKSGNTATLTISRAQAGDEADYYCQVWDSSTVAFGGGTKLTVL
B2: S451-1140 IgG (antibody, V domains shown)
VH: EVQLVESGGGLVPPGGSLRLSCAASGFIFSNYAMTWVRQAPGKGLEWVSAISGGGGSTDYADSVKGRFTISRDNSKNTLYLQMNSLRAEDTAVYYCAKDLFGSGWSLFDNWGQGTLVTVSS
VL: not shown
B3: S626-161 IgG (antibody, V domains shown)
VH: QLQLQESGPGLVKPSEALSLTCTVSGGSISTSNYYWGWIRQPPGKGLEWIGSIYYRGGTHYNPSLKTRVTISVDTSKNQFSLKLSSVTAADTAVYYCARHTYFYDIVGAAVWEPFDIWGQGTMVTVSS
VL: not shown

Legend:
[1] = target: SARS-CoV-2 WT RBD (SARS-CoV-2, wildtype (Wuhan-Hu-1 type), UniProt P0DTC2); assay: ELISA
[2] = target: SARS-CoV-1 RBD (SARS-CoV-1, strain , UniProt P59594); assay: ELISA

Binder | binding result [1] | binding result [2]
B1 | binds | –
B2 | binds | –
B3 | binds | binds
